Reference: a protein production outcome set (Wang et al. 2014)

Test: label from the status in PepcDB records

Sequence | protein production
MIPPLQLSPLALVALLSLAAWAVVLLTRRRFWRCDQRLGQNTMAPGAAPAVVAVIPARDEAHTIGQTVRSLLNQSYPGRLVVVVVDDSSSDGTADAARAGAASVYDGPSRLIVVPGKPLEAGWSGKLWAVHQGLEVAAQAVPEARYVLLTDADIEHIPGNIARLVGKCERDGLVMASLMVKLRCESAWEHLLIPAFIFFFQKLYPFPLVNDPDRRVAGAAGGCILARRETLDAIGGVAAVRGALIDDCALAALLKEKGPIWLGLAGRTRSLRPNDELGDVWRMVARTAYVQLHHSPLRLIGAVIGMTLLYLVPPVSLIVGILSADFPAAVAGLVGWIGLAIIYRPTLHLYRRPPMAGLALPLAALLYTLMTIDSARRHYVGRGGEWKGRTYSGDASAGADPGPRSPAELAAHVEAITKASGTSFYGAMRILPRERRLAMYAIYAFCRVVDDIADGTAPEAEKRAELARWRDEIEALYARGGKGPEHPVARALDGPIRRFALPREDFLAVIEGMELDAGPRVRIRDITELEQYCDWVACAVGRLSNRIFGADPALSDDVARHTGLALQLTNILRDVVEDAERDRLYLPLSRLRAHGLKTTKDIDAVLVHPATAKVCAELASKAAAEFAEADRAQAACDRKTMRPAIIMKEVYRRIHAALMVRGWARLGEPVKVSRLTKLGIALRHGWL | failed
MIPPSIRLTLRNLIVNTDPGTLLFLLGLPSFYLIVLGLMFQSIIPNVPFAGKDISYAQFLSPGVVAMQPFIAGSIGGSMLWSDRRWGMFEQLIVGPFHRIDYLLGIIYVSIIFSVGGAFLMFLVSYAITGFLVSYDINLLMIAVVLIVSSILFTSIFLVLSVFIRTIQTYNTVTMFVFFILDFASSAFYPINSRTPLGLRIVSYMNPLTYIVDAVRNMMFYKIGMQDYISLLIVVVLSGFFFLIALVSYGRARV | failed
MIPPSYCFYYFIHSGGLLSLKIRCENFIRSIADLIRKAEIELPDDVVNALRKAESIEENQVAKSQLQAILKNIEIAKNHAVPMCQDTGIMIFFAELGTEFQPGFDLEAAVRDAVVLATREIPLRPNAVDPLNRNNSGNNTGSGIPDIHWKLVPGKQLKITVSPKGAGSENMSALRMFNPTEAGSIKNFVLETVINAGGMPCPPLTLGIGIGGSFDKAARLAKEALLEPLDAPMNELEQEVLEAVNALGIGCMGLGGSTTALAVHIKTAHCHTASLPVAINIQCWANRHASIVFGEEE | failed
MIPSSSPMESRHRLSFSNEKTSRRRFQRIEKGVKFNTLKLVLICIMLGALFTIYRFRYPPLQIPEIPTSFGLTTDPRYVATAEINWNHMSNLVEKHVFGRSEYQGIGLINLNDNEIDRFKEVTKSDCDHVALHLDYAAKNITWESLYPEWIDEVEEFEVPTCPSLPLIQIPGKPRIDLVIAKLPCDKSGKWSRDVARLHLQLAAARVAASSKGLHNVHVILVSDCFPIPNLFTGQELVARQGNIWLYKPNLHQLRQKLQLPVGSCELSVPLQAKDNFYSAGAKKEAYATILHSAQFYVCGAIAAAQSIRMSGSTRDLVILVDETISEYHKSGLVAAGWKIQMFQRIRNPNAVPNAYNEWNYSKFRLWQLTEYSKIIFIDADMLILRNIDFLFEFPEISATGNNATLFNSGLMVVEPSNSTFQLLMDNINEVVSYNGGDQGYLNEIFTWWHRIPKHMNFLKHFWEGDEPEIKKMKTSLFGADPPILYVLHYLGYNKPWLCFRDYDCNWNVDIFQEFASDEAHKTWWRVHDAMPENLHKFCLLRSKQKAQLEWDRRQAEKGNYKDGHWKIKIKDKRLKTCFEDFCFWESMLWHWGETNSTNNSSTTTTSSPPHKTALPSL | failed
MIPYAFIILLVVFFSVFDFSNLNVFKKKILLFFLSFILILFVGTRFETGDDWGEYTKVFDKIPLVSDLWNDNGMFLLFRMEPGYILFNSVIKSFGGSINEVFLLSSIVVISLFFVFQKRYTLLPFLAVLLYMRYGYMQFNMMFVRQGIAISIFFYSLKYIEDKKIIKYLLINILSSLFHSSLLIVLPLYFVINRRYSNIFLCTVVFISVLLSFFDWMGAILSFFPPFIQSSLTSYTESDVWGGMTGKINIAVAEKFILLLMCLRLREKLEQKNISFNLVFNLFVLSIICYYAFFQTYVFQQRTVLIFQLSTIFIISQLFLFFSVKNRMMVLFILNLMVIYFFFRYINIGKDVYLPYRSWLI | failed
